The nanobody polyreactivity screen of Harvey et al. (2022)

Assay: yeast display, Sf9 membrane polyspecificity reagent, FACS + sequencing; frameworks hold sequencing errors
How it was run: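 In a synthetic yeast display library (Saccharomyces cerevisiae BJ5465), nanobody expression was induced with galactose for 36–48 hours. FACS gates were set low and high (top ~1%) using anti-HA fluorescence for expression and streptavidin fluorescence for binding of the Sf9 membrane reagent. Each polyreactivity label is drawn from the gate of origin.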

Row | Sequence | polyreactivity (PSR sort gate)
1 | QVQLVESGGGLVQAGGSLRLSCAASGSTFTINVMGWYRQSPGKERELVAAINGGGRTNYADSVKGRFTISRDNAKNTVYLQMNSLKPEDTAVYYCAADGLSNVRQMDYWGQGTQVTVSS | low polyreactivity
2 | QVQLVESGGGLVQAGGSLRLSCAASGFTFKYYAMGWYRQAPGKERELVATITSGGRTNYADSVKGRFTISRDNAKNTVYLQMNSLKPEDTAVYYCATPYSAYWQNERDYWGQGTQVTVSS | high polyreactivity
3 | QVQLVESGGGLVQAGGSLRLSCAATGSIFPANVMGWYRQAPGKERELVASINSGDDTNYADSVKGRFTISRDNAKNTVYLQMNSLKPEDTAVYYCATGDWYPYGDYIYDYWGQGTQVTVSS | low polyreactivity
4 | QVQLVESGGGLVQAGGSLRLSCAASGIISYKNVMGWYRQAPGKERELVAAISGRGGSTYYADSVKGRFTISRDNAKNTVYLQMNSLKPEDTAVYYCAKYPGISGYNYWGQGTQVTVSS | high polyreactivity
5 | QVQLVESGGGLVQEGGSLRLSCAASGRIFGVNAMGWYRQAPGKERELVAAIFSGGSTYYADSVKGRFTISRDNAKNTVYLQMNSLKPEDTAVYYCAARFARYDWSMYYWGQGTQVTVSS | low polyreactivity
6 | QVQLVESGGGLVQAGGSLRLSCAASGSTFQFYAMGWYRQAPGKERELVAVITSGDDTNYADSVKGRFTISRDNAKNTVYLQMNSLKPEDTAVYYCAVEYILVYTRVRSYWFDYWGQGTQVTVSS | low polyreactivity
7 | QVQLVESGGGVVQAGGSLRLSCAASGRIFARYTMGWYRQAPGKEREFVAGIRSSGGRTYYADSVKGRFTISRDTAKNTVYLQMNSLKPEDSAVYYCNAGGSWYFARYDYWGEGTQVTVSS | low polyreactivity
8 | QVQLVEEGGGLVQAGGSLSLSCAASGRIFKTNSMGWYIQAPGKERELVAGSTDSGDSTYYADSVKGRFTISRDNAKNTVYLQMNSLKPEDTAVYYCATDPASPYIYDYWGQGTQVTVSS | low polyreactivity
9 | QVQLVESGGGLVQAGGSLRLSCAASGNTFYTNVMGWYRQAPGKERELVAAITQSGARTYYADSVKGRFTISRDNAKNTVYLQMNSLKPEDTAVYYCASEHYFYRDYPYEFWGQGTQVTVSS | high polyreactivity
10 | QVQLVESGGGLVQAGGSLRLSCAASGFTFRGNAMGWYRQAPGKERELVATISRGGNTNYADSVKGRFTISRDNAKNTVYLLMNSLKPEDTAVYYFAAVSYIRSKVSYNYWGNGTQVTVSS | low polyreactivity
11 | QVQLVESGGGLVQAGGSLRLSCAASGSTFYHYAMVWYRQAPGKERELVAAISSSGGRTYYADSVKGRFTISRDNAKNTVYLKMNSLKPEDTAVYYCAARAKTSGSIEDYWGQGTQVTVSS | high polyreactivity
12 | QVQLGESGGGLVQAGGSLRLSCAASGSIVDVYAMGWYRPAPGKERELVADITSGDITNYADSVKGRFTISRDNAKNTVYLQMNSLKPEDTAVYYCATPLKLAYSPKLDYWGQGTQLTVSS | low polyreactivity
13 | QVQLVESGGGLVQAGGILRLSCAASGFIIRGNVMGWYRQAPGKERELVAAISGRGGSTYYADSVKGRFTISRDNAKNTVYLQMNSLKPEDTAVYYCNAAGLYNSRLDYWGQGTQVTVSS | high polyreactivity
14 | QVQLVDSGGGLVQAGGSLRLRCAASGSTYHYAMAGYRQAPGKERELVASITWRGDTTYYADSVKARFTISRDNAMNTVYFHMNSLKPEDSAVYYCAAYVRRCFAWGQGTQVTVSS | high polyreactivity
15 | QVQLVESGGGLVQAGGSLRLSCAASGSTFTANAMGWYRQAPGKERELVAAITNSDGSTYYADSVKGRFTISRDNAKNTVYLQMNSLKPEDTAVYYCAAPADSGITQVWQALSDYWGQGTQVTVSS | low polyreactivity
16 | QVQLVESGGGLVQAGGSLRLSCAASGSIFAAYTMGWYRQAPGKERELVAAISVSTVSTYYADSVKGRFTISRDTAKNTVYLQMNRLKPEDTAVYYCNADATDSYPEKDEHDSWGQGTQVTVSS | low polyreactivity

Row | Sequence | polyreactivity (PSR sort gate)
17 | QVQLVESGGGLVQAGGSLRLSCAASGRTFAYNAMGWYRQAPGKERELVASITSGGSTNYSDSVKGRFTISRDNAKNTVYLQMNSLKPEDTAVYYCNKDGKYHRVLYDYCGQGTQVTVSS | low polyreactivity
18 | QVQLVESGGGLVQAGGSLRLSCTASGFTSRIYAMGWYRQAPVKERELVAAITRGVSTNYSDSVKGRFTISRDNAKNTVYLQMNSLKPEDTAVYYCAARTSGSYPYRTINEYWGQGTQVTVSS | high polyreactivity
19 | QVQLVESGGGLVKAGGSLRLSCAASGFISSSYAMGWYRQAPGKERELVAVITRSGGSTYYADSVKGRFTISRDNAKNTVYLQMNSLKPEDTGVYYCNTDARSKKYIFDFDYWGQGTQVTVSS | high polyreactivity
20 | QVQLVESGGGLVQAGGSLRLSCAASGRIFYGNAMGWYRQSPGKERELVASITSSGSTKYADSVKGRFTISRDNAKNTVYLQMNSLKPEDTAVYYCAASSTKRYDTYAGYDYWGQGTQVTVSS | low polyreactivity
21 | QVQLVESGGGLVQAGGSLRLSCAASGSTFYVYGMGWYRQAPGKERELVATISSSGAITYYADSVKGRFTISRDNAKNTVYLQMNSLKPEDTAVYYCARTGSLLSQVWYTYWGQGTQVTVSS | low polyreactivity
22 | QVQLVESGGGLVQAGGSLRLSCAASGRIFFYYAMGWYRQAPGKERELVATITASGDSTYYADSVKGRFTISRDNAKDTVYLQMNSLKPEDTAVYYCAADDGDYYEVDYWGQGTQVTVSS | low polyreactivity
23 | QVQLVESGGGLVQAGGSLRLSCAASGLIFYKNAMAWYRQAPGKERELVAAIDWSSGSTYYADSVKGRFTISRDNAKNTVYLQMNSLIPEDTAVYYCAAEYVHHASGDFRTLYYYWGQGTQVTVSS | low polyreactivity
24 | QVQLVESGGGLVQAGGSLRLSCAACGLTYNANAMGWYRQAPGKERELVAAIDWIGGSTYYADSVKGRFTISRDNAKNTVYLQMNSLKPEDTAVYYCASRSKRRNYDYWGQGTQVTVSS | high polyreactivity
25 | QVQLVESGGGLVQAGGSLRFSCAASRSIFFWYTMGWYRQAPGKYRELVATITGSGSSTTYADSVKGRFTISRDNAKNTVYLQMNSLKPEDTAVYYCAAADIIDHSFPYDYWGQGTQVTVSS | low polyreactivity
26 | QVQLVESGGGLVQAGGSLRLSCAASGFIFLDNAMGWNRQAPGKERELVDAISSTGSTYADSVKGRFTISRDNAKNTVYLQMNSLKPEDTAVYYCAADIEVSWDDDGYYPEYDYWGQGTQVTVSS | low polyreactivity
27 | QVQLVESGGGLVQAGGSLRLSCAASGSIFFKYAMGWYRQAPGKERELVASITRGGRTYYADSVKGRFTISRDNAKNTVYLQMNSLKPEDTAVYYCNKRTVWKHDYWGQGTQVTVSS | high polyreactivity
28 | QVQLVESGGGLVQAGGSLRLSCAASGRTFYYNTMGWYRQAPGKERELVATISRIGGSTYYADSVKGRFTISRDNAKNTVYLQMNSLKPEDTAVYYCAAYVAAYPTGYDYWGQGTQVTVSS | high polyreactivity
29 | QVQLQESGGGLVQAGGSLRLSCAASGYIPLAQTIGSYRQAPGKEREFVASIALGSSTYYTDSVKGSFTISRDNAKTTVYLQMNSLKPEDTAVYYCAARVGACYAHDYWGQGTQVTVSS | low polyreactivity
30 | QVQLVESGGGLVQAGGSLRLSCAASGRTFDPNAMGWYRQAPGKERELVAAISGRGTSTYYADSVKGRFTISRDDAKNTVYLQMNSLKPEDTAVYYCAKAGAGESIAKYDYWGQGTQVTVSS | low polyreactivity
31 | QVQLVESGGGLVQAGGRLRLSCAASGFTVSYYGMGWSRQAPGKERELVATISSSGSTNYADSVKGRFTISRDNAKNSVYLQMNSLKPEDTAVYYCATDYADAGYYTTFDYWGQGTQVTVSS | high polyreactivity
32 | QVQLVESGGGLVQAGGSLRLSCAASGSIFQYNAMGWYRQAPGKERELVAAISSRGGITYYADSVKGRFTISRDNAQNTVYLQMNSLKPEDTAVYYCAAEAYYSEVRWYEYWGQGTQVTVSS | high polyreactivity
